Measured values taken from publication PMC10733300, “ANKS1A regulates LDL receptor-related protein 1 (LRP1)-mediated cerebrovascular clearance in brain endothelial cells” (Nature Communications, 2023).

Tested on: iBBB (human iPSC-derived BBB)
Test: Aβ(1–40) / Aβ(1–42) transcytosis and paracellular permeability assay, iBBB (transwell)
Conditions: Cy3-labeled Aβ(1–40) added to the abluminal side, 20 nM, 37 °C, 1 h, fluorescence
Method: For iBBBs, iPSC-derived brain endothelial cells (iECs) were dissociated by Accutase, resuspended with hECSR1 supplemented with 10 μM Y27632 and then seeded onto a 24-well Matrigel-coated Transwell at a density of 10^6 cells per cm^2 to complete a confluent monolayer for 24 h. Afterwards, the iPCs, iASs or MEFs were seeded on top of the iEC monolayer culture at a density of 5 × 10^4 cells per cm^2. The iBBBs were further cultured for 12 or 14 days.
For analysis of bottom (apical) to top (basolateral) permeability, 500 μl of medium containing the fluorescent proteins was added to the lower chamber; for analysis of top to bottom permeability, 100 μl medium of the fluorescent proteins was added to the top chamber. Permeability assays were conducted at 37 °C for 1 h. Media from the bottom chamber or the top transwell insert were collected and analyzed by a fluorescence plate reader (Molecular Devices). The rationale for using the indicated final concentrations for each protein was that the levels of diffused or transcytosed proteins were within a detectable range via fluorescence.

Substance: Aβ(1-40): Cy3-labeled amyloid beta (1–40) peptide used as fluorescent permeant at 20 nM in the BBB models
- increase of permeability in WT iBBB compared to iECs co-cultured with MEFs: 12%
